Results published in US20210062131A1, “In Vitro, Multi-Niche, Bone Marrow-on-a-Chip” (Georgia Tech Research Corporation, priority 2018, published 2021).

Test system: CXCL12
Test: CXCL12 expression by immunohistochemistry in BMOC device after adding mobilizing agents
Type: cell-based, human
Details: BMOC with OBs, HUVECs and MSCs; G-CSF and AMD3100 added on day 5, cells fixed and stained on day 6; IHC
Description: Cells were fixed and stained on day 6. CXCL12 expression was measured by immunohistochemistry (IHC); n=2-3 devices (× 5 ROI each), mean±SD.
Staining procedure for devices was adapted from previously reported approaches. Devices were washed with PBS, fixed with 4% formaldehyde (ThermoFisher), and permeabilized with 0.1% Triton X-100. Prior to staining, cells were blocked with 5% BSA, 3% goat serum in PBS. Primary antibodies were diluted (1:100) in blocking buffer and devices were stained overnight at 4° C. Devices were then washed with 0.1% BSA in PBS and stained with secondary antibodies (1:200) diluted in wash buffer for 3 hours at RT. Devices were washed with wash buffer and then stained with DAPI (1:1000) and Phalloidin AF647 (1:40).

B1: G-CSF: mobilizing agent added to the BMOC device (protein, UniProt P09919 31-207, looked up)
Granulocyte …: TPLGPASSLPQSFLLKCLEQVRKIQGDGAALQEKLVSECATYKLCHPEELVLLGHSLGIPWAPLSSCPSQALQLAGCLSQLHSGLFLYQGLLQALEGISPELGPTLDTLQLDVADFATTIWQQMEELGMAPALQPTQGAMPAFASAFQRRAGGVLVASHLQSFLEVSYRVLRHLAQP
With B1 the “expression of cytokine CXCL12” value was “decrease expression of cytokine CXCL12”.
